The values below come from article PMC11645235 (Cell, 2024).

Where “and” joins values, the source holds several entries; their conditions need not be identical. Equal entries are not always repeated.

The target of test [1] is CRISPR-associated adenosine deaminase 1 (Cad1). The test can be described thus: ITC; co-crystal structure at […] Å. It counts as binding, Bacteroidales bacterium. Background: Isothermal titration calorimetry measures the heat released or taken up as one component is titrated into another.
Test [2] concerns the target CRISPR-associated adenosine deaminase 1 (Cad1), hexa-histidyl tagged, full length (unknown Bacteroidales bacterium). The test can be described thus: SEC-MALS; Superdex 200 10/300 increase column in buffer A (25 mM Hepes pH 8, 200 mM NaCl, 2 mM beta-mercaptoethanol, 5% glycerol); full-length Cad1 at 20 uM, apo and also after incubation with cA4 or cA6, ATP and MgCl2 (1:5:50:50) at 37 C. On the technique in general: In gel filtration, larger molecules generally elute earlier.

Test [3] has as its target Cad1 E408A mutant (unknown Bacteroidales bacterium). Described as above.
The target in test [4] is Cad1 K342A mutant (unknown Bacteroidales bacterium). The test is described as above.
In test [5] the target is Cad1 W349A mutant (unknown Bacteroidales bacterium). The description is as above.
For test [6], the target named is hexa-histidyl-tagged CARF domain of Cad1 (residues 1-185) (unknown Bacteroidales bacterium). Described as above.

`Nc1ncnc2c1ncn2[C@@H]1O[C@@H]2COP(=O)(O)O[C@H]3[C@@H](O)[C@H](n4cnc5c(N)ncnc54)O[C@@H]3COP(=O)(O)O[C@H]3[C@@H](O)[C@H](n4cnc5c(N)ncnc54)O[C@@H]3COP(=O)(O)O[C@H]3[C@@H](O)[C@H](n4cnc5c(N)ncnc54)O[C@@H]3COP(=O)(O)O[C@H]3[C@@H](O)[C@H](n4cnc5c(N)ncnc54)O[C@@H]3COP(=O)(O)O[C@H]3[C@@H](O)[C@H](n4cnc5c(N)ncnc54)O[C@@H]3COP(=O)(O)O[C@H]2[C@H]1O` [cA6]: the Kd in test [1] was determined as 30 nM.

In the case of “CRISPR-associated adenosine deaminase 1 (Cad1), hexa-histidyl tagged, full length (enzyme)”, the stoichiometry N in test [2] is 6 and 2. Regarding Cad1 E408A mutant (enzyme), the stoichiometry N in test [3] stood at 6. Cad1 K342A mutant (enzyme) showed a stoichiometry N in test [4] of 6. Cad1 W349A mutant (enzyme) registered a stoichiometry N in test [5] of 2. For “hexa-histidyl-tagged CARF domain of Cad1 (residues 1-185) (domain or fragment)”, the stoichiometry N in test [6] was found to be 2.

By Kd is commonly meant the equilibrium constant for the complex coming apart. A higher Kd goes with a looser complex. As a reminder, the stoichiometry N is the number of molecules, sites or subunits per partner or assembly.
